Reference: publication PMC4259407, “HAX1 regulates E3 ubiquitin ligase activity of cIAPs by promoting their dimerization” (Oncotarget, 2014)

Target: T1, full-length His-tagged cIAP2 (UniProt Q13489 1-604)
T1 construct: also called His-cIAP2; source: E. coli BL21 (DE3), purified (Ni-NTA)
Experiment: pull-down; in vitro dimerization assay: purified His-cIAP2 and GST-BUCR with HAX1 or HAX1N (0, 0.5 and 5 μg), preincubated at 4°C for 30 min; Ni-NTA agarose, 4 h at 4°C; 20 mM HEPES, 100 mM NaCl, 5% glycerol, 0.1 mg BSA, 0.1% Triton X-100; blots with anti-His and anti-GST; more complex with HAX1, no effect of HAX1N
Conditions: both partners purified

B1: GST-tagged cIAP2 fragment (GST-BUCR) (domain or fragment, UniProt Q13489 251-604, looked up)
chain: SMQTHAARFKTFFNWPSSVLVNPEQLASAGFYYVGNSDDVKCFCCDGGLRCWESGDDPWVQHAKWFPRCEYLIRIKGQEFIRQVQASYPHLLEQLLSTSDSPGDENAESSIIHFEPGEDHSEDAIMMNTPVINAAVEMGFSRSLVKQTVQRKILATGENYRLVNDLVLDLLNAEDEIREEERERATEEKESNDLLLIRKNRMALFQHLTCVIPILDSLLTAGIINEQEHDVIKQKTQTSLQARELIDTILVKGNIAATVFRNSLQEAEAVLYEHLFVQQDIKYIPTEDVSDLPVEEQLRRLQEERTCKVCMDKEVSIVFIPCGHLVVCKDCAPSLRKCPICRSTIKGTVRTFLS
notes: cIAP2 residues 251-604 (printed as BUCT in the methods, BUCR in the results), cloned into the GST-tagged vector pGEX-6p-1; also called BUCT (a.a 251–604); source: E. coli BL21 (DE3), purified (glutathione-Sepharose 4B)
binding result: binds
